Key:
Experiment in all cases: ELISA
BtKY72 RBD = biological target: BtKY72 RBD
RsSTT200 RBD = biological target: RsSTT200 RBD
Rf1 RBD = biological target: Rf1 RBD
Pang17 RBD = biological target: Pang17 RBD
Rs4081 RBD = biological target: Rs4081 RBD
LyRa3 RBD = biological target: LyRa3 RBD
Khosta2 RBD = biological target: Khosta2 RBD
Yun11 RBD = biological target: Yun11 RBD
SHC014 RBD = biological target: SHC014 RBD
BM4831 RBD = biological target: BM4831 RBD
RmYN02 RBD = biological target: RmYN02 RBD
RaTG13 RBD = biological target: RaTG13 RBD

Measured: EC50

C102 IgG
not listed: RaTG13 RBD
> 10 µg/mL: all other assays above

C144 IgG
not listed: RsSTT200 RBD
> 10 µg/mL: all other assays above

S309 IgG
> 10 µg/mL: BtKY72 RBD | Rf1 RBD | Rs4081 RBD | Yun11 RBD | RmYN02 RBD

— patent US20230250157A1
